No end group written: not given here. *: point of attachment. Farnesyl = CC(C)=CCC/C(C)=C/CC/C(C)=C/C*
Molecular target: T1, phosphodiesterase-δ (PDEδ) (UniProt O43924 1-150)
T1 construct: also called His6-MBP-tev-PDEδ; source: E. coli, purified
Test: ITC; 1 mM KRAS4a(167–186)HVR-FMe peptide in the syringe, 200 μM PDEδ in the cell; 25°C; 20 mM Hepes pH 7.3, 150 mM NaCl, 5 mM MgCl2, 1 mM TCEP; single binding site model
Conditions: both partners purified

T1 sequence (O43924 whole entry, stated change not applied): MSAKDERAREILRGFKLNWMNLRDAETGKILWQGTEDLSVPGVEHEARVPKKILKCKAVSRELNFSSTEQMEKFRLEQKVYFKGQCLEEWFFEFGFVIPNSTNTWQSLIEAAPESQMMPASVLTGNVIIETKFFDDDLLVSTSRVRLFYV

B1: KRAS4a(167–186)HVR-FMe peptide (peptide, UniProt P01116-1 167-186, looked up)
peptide: RLKKISKEEKTPGCVKIKKC(Farnesyl)-OMe
notes: KRAS splice variant KRAS4a, hypervariable region, residues 167 to 186 (20-mer ending at the prenylated cysteine); also called prenylated 20-residue KRAS4a HVR peptide; KRAS4a-HVR peptide; source: synthetic peptide, bought: AnaSpec Peptides Inc
Question: Which Kd does the source give for B1 here?
Answer: 27 µM

Source: article PMC11636682 (Science Advances, 2024)
